Reference: patent US20260125454A1 (SHANGHAI JUNSHI BIOSCIENCES, published 2026)
Numbering of substitutions follows the chain as printed.

B1: hu67 (antibody, V domains shown)
VH: QVQLVQSGSELKKPGASVKVSCKASGYTFTDFNMHWVRQAPGQGLEWMGYIYPYNGDVVYNQNFTNRFVLSVDSSSSTAYLQISSLKAEDTAVYYCAREGLGGYWGQGTLVTVSS
VL: DIVLTQSPASLAVSPGQRATITCKASQNIDYDGYAYLNWYQQKPGQPPKVLIYSVFNLESGVPARFSGSGSGTDFTLTINPVEADDTANYYCQQSNEFPYTFGQGTKLEIK
notes: 1F5 HC-4/1A2 LC2-2
B2: hu70 (antibody, V domains shown)
VH: B1 VH
VL: EIVLTQSPATLSLSPGERATLSCKASQNIDFDGYAYMNWYQQKPGQAPRVLIYSVFNLESGIPARFSGSGSGTDFTLTISSLEPEDFAVYYCQQSHEVPYTFGQGTKLEIK
notes: 1F5 HC-4/1F5 LC1-1
B3: hu73 (antibody, V domains shown)
VH: B1 VH
VL: DIVLTQSPDSLAVSLGERATINCKASQNIDFDGYAYMNWYQHKPGQPPKVLIYSVFNLESGVPDRFSGSGSGTDFTLTISSLQAEDVAVYYCQQSHEVPYTFGQGTKLEIK
notes: 1F5 HC-4/1F5 LC1-4
B4: hu68 (antibody, V domains shown)
VH: B1 VH
VL: B2 VL with F31Y, M37L, H96N, V98F
notes: 1F5 HC-4/1A2 LC2-3
B5: hu75 (antibody, V domains shown)
VH: B1 VH
VL: DVQLTQSPSFLSASVGDRVTITCQASQNIDGNTYMNWYQQKPGKAPKVLIYSIFNLESGVPSRFSGSGSGTEFTLTISSLQPEDFATYYCQQSNDYPYTFGQGTKLEIK
notes: 1F5 HC-4/2B8 LC2-2
B6: hu72 (antibody, V domains shown)
VH: B1 VH
VL: B1 VL with Y31F, L37M, N96H, F98V
notes: 1F5 HC-4/1F5 LC1-3
B7: hu26 (antibody, V domains shown)
VH: QVQLVQSGAEVKKPGASVKVSCKASGYTFTDYNMHWVRQAPGQRLEWMGYIFPYNGVAVYNRKFRSRVTLTVDTSSSTAYMELSSLRSEDTAVYYCAREGLGGYWGQGTLVTVSS
VL: DIQLTQSPSSLSASVGDRVTITCKASQNIDYGGYSYMNWYQQKPGKAPKVLIYSVFNLESGVPSRFSGSGSGTDFTLTISSLQPEDFATYYCQQSNEAPYTFGQGTKLEIK
notes: 1B2 HC-2/3H10 LC2-2
B8: hu47 (antibody, V domains shown)
VH: B7 VH with Y32F, F52Y, V57D, A58V, R62Q, K63N, R65T, S66N
VL: B3 VL
notes: 1F5 HC-2/1F5 LC1-4
B9: hu91 (antibody, V domains shown)
VH: B7 VH with T30I, Y32F, F52Y, G56A, V57D, A58V, R62Q, K63D, R65T, S66N
VL: B7 VL
notes: 1F5 HC-5/3H10 LC2-2
B10: hu94 (antibody, V domains shown)
VH: B7 VH with I51V, F52Y, V57G, A58S, V59A, R62Q, R65K
VL: B2 VL with F31Y, M37L, H96N, V98F
notes: 2A2 HC-1/1A2 LC2-3
B11: hu164 (antibody, V domains shown)
VH: B7 VH with F52S, V57G, A58T, V59A, R62Q, R65K, S66F
VL: B3 VL
notes: 3E5 HC-2/1F5 LC1-4
B12: hu39 (antibody, V domains shown)
VH: B7 VH with T30I, Y32F, F52Y, V57D, A58V, R62Q, K63N, R65T, S66N
VL: B7 VL
notes: 1F5 HC-1/3H10 LC2-2
B13: hu33 (antibody, V domains shown)
VH: B7 VH with T30I, Y32F, F52Y, V57D, A58V, R62Q, K63N, R65T, S66N
VL: B1 VL with Y31F, L37M, N96H, F98V
notes: 1F5 HC-1/1F5 LC1-3
B14: hu146 (antibody, V domains shown)
VH: B7 VH with A24T, F52S, V57G, A58T, V59A, R62Q, R65K, S66F
VL: B2 VL with F31Y, M37L, H96N, V98F
notes: 3E5 HC-1/1A2 LC2-3
B15: hu98 (antibody, V domains shown)
VH: B7 VH with I51V, F52Y, V57G, A58S, V59A, R62Q, R65K
VL: B1 VL with Y31F, L37M, N96H, F98V
notes: 2A2 HC-1/1F5 LC1-3
B16: hu155 (antibody, V domains shown)
VH: B7 VH with A24T, F52S, V57G, A58T, V59A, R62Q, R65K, S66F
VL: B3 VL with F31Y, D32G, A35S, H42Q, H96N, V98A
notes: 3E5 HC-1/3H10 LC2-1
B17: hu99 (antibody, V domains shown)
VH: B7 VH with I51V, F52Y, V57G, A58S, V59A, R62Q, R65K
VL: B3 VL
notes: 2A2 HC-1/1F5 LC1-4
B18: hu51 (antibody, V domains shown)
VH: B7 VH with Y32F, F52Y, V57D, A58V, R62Q, K63N, R65T, S66N
VL: B3 VL with F31Y, D32G, A35S, H42Q, H96N, V98A
notes: 1F5 HC-2/3H10 LC2-1
B19: hu168 (antibody, V domains shown)
VH: B7 VH with F52S, V57G, A58T, V59A, R62Q, R65K, S66F
VL: B3 VL with F31Y, D32G, A35S, H42Q, H96N, V98A
notes: 3E5 HC-2/3H10 LC2-1
B20: hu78 (antibody, V domains shown)
VH: B1 VH
VL: B7 VL
notes: 1F5 HC-4/3H10 LC2-2
B21: hu150 (antibody, V domains shown)
VH: B7 VH with A24T, F52S, V57G, A58T, V59A, R62Q, R65K, S66F
VL: B1 VL with Y31F, L37M, N96H, F98V
notes: 3E5 HC-1/1F5 LC1-3
B22: hu156 (antibody, V domains shown)
VH: B7 VH with A24T, F52S, V57G, A58T, V59A, R62Q, R65K, S66F
VL: B7 VL
notes: 3E5 HC-1/3H10 LC2-2
B23: hu69 (antibody, V domains shown)
VH: B1 VH
VL: B7 VL with S10F, G32D, S35A, M37L, D74E, A98F
notes: 1F5 HC-4/1A2 LC2-4
B24: hu103 (antibody, V domains shown)
VH: B7 VH with I51V, F52Y, V57G, A58S, V59A, R62Q, R65K
VL: B3 VL with F31Y, D32G, A35S, H42Q, H96N, V98A
notes: 2A2 HC-1/3H10 LC2-1
B25: hu104 (antibody, V domains shown)
VH: B7 VH with I51V, F52Y, V57G, A58S, V59A, R62Q, R65K
VL: B7 VL
notes: 2A2 HC-1/3H10 LC2-2
B26: hu81 (antibody, V domains shown)
VH: B7 VH with T30I, Y32F, F52Y, G56A, V57D, A58V, R62Q, K63D, R65T, S66N
VL: B2 VL with F31Y, M37L, H96N, V98F
notes: 1F5 HC-5/1A2 LC2-3
B27: hu85 (antibody, V domains shown)
VH: B7 VH with T30I, Y32F, F52Y, G56A, V57D, A58V, R62Q, K63D, R65T, S66N
VL: B1 VL with Y31F, L37M, N96H, F98V
notes: 1F5 HC-5/1F5 LC1-3
B28: hu52 (antibody, V domains shown)
VH: B7 VH with Y32F, F52Y, V57D, A58V, R62Q, K63N, R65T, S66N
VL: B7 VL
notes: 1F5 HC-2/3H10 LC2-2
B29: hu29 (antibody, V domains shown)
VH: B7 VH with T30I, Y32F, F52Y, V57D, A58V, R62Q, K63N, R65T, S66N
VL: B2 VL with F31Y, M37L, H96N, V98F
notes: 1F5 HC-1/1A2 LC2-3

Molecular target: T1, Biotin-huCGRPaSA (human, not fully specified; biotin (position not given))
T1 construct: exact construct ('aSA') not explained; also called Biotin CGRPaSA; full-length (1-37) CGRP
T1 peptide: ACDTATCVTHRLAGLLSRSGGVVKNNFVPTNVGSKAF
Assay: ELISA, supernatant; relative to chimeric C245
In short: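 Plates coated with biotin-CGRPaSA at 1.0 μg/mL (90 min, 37°C) and blocked with 2% BSA. Humanized antibodies and chimeric C245 reference, 2.5-fold serial dilutions from 1000 ng/mL, bound 60 min at 37°C. Detection by HRP anti-human IgG (Fc), TMB 15 min, read at 450/620 nm.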

Row | Binder | Relative binding activity, % [%]
1 | B1 | 115
2 | B2 | 116
3 | B3 | 106
4 | B4 | 104
5 | B5 | 84
6 | B6 | 115
7 | B7 | 20
8 | B8 | 10
9 | B9 | 98
10 | B10 | 48
11 | B11 | 56
12 | B12 | 51
13 | B13 | 18
14 | B14 | 107
15 | B15 | 76
16 | B16 | 74
17 | B17 | 74
18 | B18 | 83
19 | B19 | 68
20 | B20 | 64
21 | B21 | 64
22 | B22 | 32
23 | B23 | 102
24 | B24 | 88
25 | B25 | 45
26 | B26 | 96
27 | B27 | 76
28 | B28 | 25
29 | B29 | 63
